Experimental findings from publication PMC5017731 are described below.

This experiment deals with cardiac ryanodine receptor (RyR2) (rat (endogenous in neonatal ventricular cardiomyocytes)) (UniProt B0LPN4).
UniProt B0LPN4, sequence (B0LPN4 whole entry): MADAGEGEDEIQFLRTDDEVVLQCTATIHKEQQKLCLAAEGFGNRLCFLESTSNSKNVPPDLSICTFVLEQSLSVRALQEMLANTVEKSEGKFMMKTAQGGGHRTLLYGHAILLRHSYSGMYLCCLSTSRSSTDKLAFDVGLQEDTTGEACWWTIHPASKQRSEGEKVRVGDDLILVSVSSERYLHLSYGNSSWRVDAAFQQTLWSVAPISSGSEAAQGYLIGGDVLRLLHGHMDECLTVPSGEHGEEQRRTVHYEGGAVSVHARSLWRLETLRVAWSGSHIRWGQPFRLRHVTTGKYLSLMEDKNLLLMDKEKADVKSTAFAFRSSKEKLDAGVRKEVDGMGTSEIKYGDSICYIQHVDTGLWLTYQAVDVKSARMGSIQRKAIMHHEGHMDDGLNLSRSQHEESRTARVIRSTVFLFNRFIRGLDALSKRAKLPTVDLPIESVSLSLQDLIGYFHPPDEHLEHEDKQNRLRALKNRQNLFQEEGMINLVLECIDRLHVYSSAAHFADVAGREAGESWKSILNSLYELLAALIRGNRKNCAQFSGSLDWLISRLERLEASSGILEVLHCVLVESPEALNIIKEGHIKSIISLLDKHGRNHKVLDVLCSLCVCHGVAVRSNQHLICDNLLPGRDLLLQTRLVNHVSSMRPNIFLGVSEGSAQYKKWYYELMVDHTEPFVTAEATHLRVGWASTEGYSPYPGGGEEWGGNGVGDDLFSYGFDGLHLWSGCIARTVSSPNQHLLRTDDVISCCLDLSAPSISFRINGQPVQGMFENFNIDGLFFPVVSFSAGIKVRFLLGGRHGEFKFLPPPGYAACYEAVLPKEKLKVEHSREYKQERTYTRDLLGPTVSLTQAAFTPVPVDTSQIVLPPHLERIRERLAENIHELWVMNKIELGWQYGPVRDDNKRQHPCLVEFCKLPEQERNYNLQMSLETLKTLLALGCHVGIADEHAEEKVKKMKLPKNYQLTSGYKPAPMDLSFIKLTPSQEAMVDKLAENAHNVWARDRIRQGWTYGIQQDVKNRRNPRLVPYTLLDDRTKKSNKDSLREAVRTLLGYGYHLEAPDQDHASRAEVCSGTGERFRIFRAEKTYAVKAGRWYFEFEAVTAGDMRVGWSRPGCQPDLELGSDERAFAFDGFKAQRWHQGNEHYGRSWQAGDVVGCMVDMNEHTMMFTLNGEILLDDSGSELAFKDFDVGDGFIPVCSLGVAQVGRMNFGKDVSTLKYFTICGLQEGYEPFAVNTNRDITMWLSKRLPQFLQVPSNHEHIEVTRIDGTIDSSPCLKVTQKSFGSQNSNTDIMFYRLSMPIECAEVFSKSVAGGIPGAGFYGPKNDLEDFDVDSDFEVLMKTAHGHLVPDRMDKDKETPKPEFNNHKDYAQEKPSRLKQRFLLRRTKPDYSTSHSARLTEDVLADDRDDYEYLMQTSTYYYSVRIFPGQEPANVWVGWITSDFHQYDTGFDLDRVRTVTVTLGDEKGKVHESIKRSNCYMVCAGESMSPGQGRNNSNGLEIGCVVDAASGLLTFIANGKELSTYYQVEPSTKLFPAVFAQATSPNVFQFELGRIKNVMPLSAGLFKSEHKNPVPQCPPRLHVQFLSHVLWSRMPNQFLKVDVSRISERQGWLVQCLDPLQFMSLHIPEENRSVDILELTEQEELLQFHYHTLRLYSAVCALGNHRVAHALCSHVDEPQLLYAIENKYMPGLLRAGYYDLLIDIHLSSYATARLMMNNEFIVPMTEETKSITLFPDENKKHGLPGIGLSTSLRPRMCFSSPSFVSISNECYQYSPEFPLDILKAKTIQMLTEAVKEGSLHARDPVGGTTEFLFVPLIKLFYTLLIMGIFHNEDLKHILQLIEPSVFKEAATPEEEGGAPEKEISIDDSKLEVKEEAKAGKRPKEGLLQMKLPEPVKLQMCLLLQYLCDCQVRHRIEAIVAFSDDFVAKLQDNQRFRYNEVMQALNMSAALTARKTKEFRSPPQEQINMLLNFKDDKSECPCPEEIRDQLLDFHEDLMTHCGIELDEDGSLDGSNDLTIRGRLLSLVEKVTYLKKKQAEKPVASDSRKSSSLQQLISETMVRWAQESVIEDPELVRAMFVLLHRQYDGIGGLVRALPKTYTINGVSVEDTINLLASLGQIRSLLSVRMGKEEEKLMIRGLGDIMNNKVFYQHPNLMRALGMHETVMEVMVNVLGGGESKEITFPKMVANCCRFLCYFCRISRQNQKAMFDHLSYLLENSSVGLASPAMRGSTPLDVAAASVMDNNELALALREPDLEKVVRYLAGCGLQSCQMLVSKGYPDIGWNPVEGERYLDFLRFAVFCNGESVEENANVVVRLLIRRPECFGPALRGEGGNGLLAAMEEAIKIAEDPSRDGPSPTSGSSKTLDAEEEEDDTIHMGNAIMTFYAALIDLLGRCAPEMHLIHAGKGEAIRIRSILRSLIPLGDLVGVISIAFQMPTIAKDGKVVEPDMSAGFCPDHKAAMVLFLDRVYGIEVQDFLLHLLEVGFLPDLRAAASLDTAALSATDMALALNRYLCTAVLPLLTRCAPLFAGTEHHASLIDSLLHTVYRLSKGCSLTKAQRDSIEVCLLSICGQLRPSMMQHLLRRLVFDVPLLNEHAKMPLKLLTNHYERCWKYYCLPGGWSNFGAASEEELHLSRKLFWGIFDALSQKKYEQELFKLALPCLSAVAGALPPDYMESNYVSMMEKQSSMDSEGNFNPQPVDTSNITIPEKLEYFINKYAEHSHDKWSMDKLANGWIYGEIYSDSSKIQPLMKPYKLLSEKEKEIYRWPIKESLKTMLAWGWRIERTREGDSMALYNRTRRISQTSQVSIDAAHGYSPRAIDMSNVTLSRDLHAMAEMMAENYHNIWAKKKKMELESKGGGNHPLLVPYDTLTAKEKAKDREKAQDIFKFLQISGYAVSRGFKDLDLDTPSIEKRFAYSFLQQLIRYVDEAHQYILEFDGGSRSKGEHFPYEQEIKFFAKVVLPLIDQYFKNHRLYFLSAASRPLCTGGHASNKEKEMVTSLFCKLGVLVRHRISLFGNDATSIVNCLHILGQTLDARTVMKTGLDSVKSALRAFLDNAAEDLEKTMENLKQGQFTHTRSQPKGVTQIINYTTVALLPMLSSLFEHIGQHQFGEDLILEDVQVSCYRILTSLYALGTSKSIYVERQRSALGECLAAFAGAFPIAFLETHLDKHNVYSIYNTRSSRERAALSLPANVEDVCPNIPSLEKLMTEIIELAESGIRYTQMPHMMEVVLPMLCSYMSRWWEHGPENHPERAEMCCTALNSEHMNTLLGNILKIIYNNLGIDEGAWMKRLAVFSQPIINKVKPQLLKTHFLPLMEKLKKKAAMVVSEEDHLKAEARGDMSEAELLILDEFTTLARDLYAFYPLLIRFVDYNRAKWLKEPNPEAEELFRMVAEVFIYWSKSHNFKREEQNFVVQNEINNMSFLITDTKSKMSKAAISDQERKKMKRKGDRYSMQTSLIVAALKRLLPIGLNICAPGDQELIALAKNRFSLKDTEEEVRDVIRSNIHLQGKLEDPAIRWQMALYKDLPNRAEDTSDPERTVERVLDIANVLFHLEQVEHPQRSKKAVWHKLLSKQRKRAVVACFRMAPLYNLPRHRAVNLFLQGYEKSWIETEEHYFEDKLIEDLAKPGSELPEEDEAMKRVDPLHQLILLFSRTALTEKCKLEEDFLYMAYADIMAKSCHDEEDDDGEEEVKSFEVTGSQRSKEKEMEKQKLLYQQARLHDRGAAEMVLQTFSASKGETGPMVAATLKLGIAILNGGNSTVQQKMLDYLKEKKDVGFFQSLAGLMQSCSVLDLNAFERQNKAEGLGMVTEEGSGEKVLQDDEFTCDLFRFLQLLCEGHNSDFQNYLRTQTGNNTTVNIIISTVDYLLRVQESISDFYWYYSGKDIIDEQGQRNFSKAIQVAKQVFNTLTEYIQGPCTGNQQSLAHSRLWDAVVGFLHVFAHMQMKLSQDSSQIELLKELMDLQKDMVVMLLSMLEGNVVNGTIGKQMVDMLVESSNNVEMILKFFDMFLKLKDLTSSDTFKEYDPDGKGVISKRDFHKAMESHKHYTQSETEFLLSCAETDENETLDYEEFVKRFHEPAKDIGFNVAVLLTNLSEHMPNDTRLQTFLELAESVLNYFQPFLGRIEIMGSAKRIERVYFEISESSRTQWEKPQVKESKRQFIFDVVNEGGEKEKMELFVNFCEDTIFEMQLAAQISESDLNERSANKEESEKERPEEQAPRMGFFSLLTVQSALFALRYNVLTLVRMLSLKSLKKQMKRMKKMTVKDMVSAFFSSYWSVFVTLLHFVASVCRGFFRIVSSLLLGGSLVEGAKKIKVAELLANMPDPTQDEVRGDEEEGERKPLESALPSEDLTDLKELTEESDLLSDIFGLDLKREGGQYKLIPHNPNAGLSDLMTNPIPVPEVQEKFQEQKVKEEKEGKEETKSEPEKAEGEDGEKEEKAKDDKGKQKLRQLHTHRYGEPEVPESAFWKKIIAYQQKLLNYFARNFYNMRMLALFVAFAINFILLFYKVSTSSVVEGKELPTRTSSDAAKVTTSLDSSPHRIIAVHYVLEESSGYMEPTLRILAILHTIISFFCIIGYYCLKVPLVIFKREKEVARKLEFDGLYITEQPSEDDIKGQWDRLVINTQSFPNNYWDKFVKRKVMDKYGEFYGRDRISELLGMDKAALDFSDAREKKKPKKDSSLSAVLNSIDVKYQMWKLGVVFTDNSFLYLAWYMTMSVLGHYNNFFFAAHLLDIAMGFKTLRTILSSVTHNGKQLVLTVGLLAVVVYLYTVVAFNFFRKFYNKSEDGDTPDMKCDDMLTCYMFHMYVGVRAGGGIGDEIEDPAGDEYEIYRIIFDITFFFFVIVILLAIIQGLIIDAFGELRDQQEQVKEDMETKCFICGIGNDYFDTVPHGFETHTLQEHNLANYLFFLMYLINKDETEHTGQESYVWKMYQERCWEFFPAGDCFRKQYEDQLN

B1: C-terminal half of GSTM2 (GSTM2C) (domain or fragment)
chain: PMTLGYWNIRGLAHSIRLLLEYTDSSYEEKKYTMGDAPDYDRSQWLNEKFKLGLDFPNLPYLIDGTHKITQSNAILRYIARKHNLCGESEKEQIREDILENQFMDSRMQLAKLCYDPDFEKLKPEYLQALPEMLKLYSQFLGKQPWFLGDKITFVDFIAYDVLERNQVFEPSCLDAFPNLKDFISRFEGLEKISAYMKSSRFLPRPVFTKMAVWGNK
With B1, the field-stimulated myocyte shortening after 2 h with 5, 10 and 15 uM GSTM2C, as percent of control (3.0%, 10.9% and 42.8%); significant only at 15 uM was 42.8 % of control.
